Biological target: Elongin B, expressed in Saos-2 cells (UniProt Q15370)
Test: co-immunoprecipitation (IP: myc, IB: HA) with band densitometry
Conditions: Saos-2 cells co-transfected with LANA-myc and HA-Elo.BC; parent: est. 4.0; read off a plot

UniProt Q15370, sequence (Q15370 whole entry): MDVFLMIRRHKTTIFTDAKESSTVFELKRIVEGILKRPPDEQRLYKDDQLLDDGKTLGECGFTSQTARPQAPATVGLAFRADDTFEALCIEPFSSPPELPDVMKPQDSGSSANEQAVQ

## KSHV latency-associated nuclear antigen (LANA), full length, myc-tagged L213G
  response: 0.4 RD

## KSHV latency-associated nuclear antigen (LANA), full length, myc-tagged C217G
  response: 0.4 RD

## KSHV latency-associated nuclear antigen (LANA), full length, myc-tagged L213P; C217F
  response: 1.3 RD

Reference: PMC1626105
